Assay results from PMC2752026 (The EMBO Journal, 2009).

Target: the molecule itself
Assay: crystal structure

B1: major vault protein MVP, as in intact vault particles purified from rat liver (natural protein, rat (endogenous in rat liver), UniProt Q62667 1-861, looked up)
chain: MATEEAIIRIPPYHYIHVLDQNSNVSRVEVGPKTYIRQDNERVLFAPVRMVTVPPRHYCIVANPVSRDTQSSVLFDITGQVRLRHADQEIRLAQDPFPLYPGEVLEKDITPLQVVLPNTALHLKALLDFEDKNGDKVMAGDEWLFEGPGTYIPQKEVEVVEIIQATVIKQNQALRLRARKECFDREGKGRVTGEEWLVRSVGAYLPAVFEEVLDLVDAVILTEKTALHLRALQNFRDLRGVLHRTGEEWLVTVQDTEAHVPDVYEEVLGVVPITTLGPRHYCVILDPMGPDGKNQLGQKRVVKGEKSFFLQPGERLERGIQDVYVLSEQQGLLLKALQPLEEGESEEKVSHQAGDCWLIRGPLEYVPSAKVEVVEERQAIPLDQNEGIYVQDVKTGKVRAVIGSTYMLTQDEVLWEKELPSGVEELLNLGHDPLADRGQKGTAKPLQPSAPRNKTRVVSYRVPHNAAVQVYDYRAKRARVVFGPELVTLDPEEQFTVLSLSAGRPKRPHARRALCLLLGPDFFTDVITIETADHARLQLQLAYNWHFELKNRNDPAEAAKLFSVPDFVGDACKAIASRVRGAVASVTFDDFHKNSARIIRMAVFGFEMSEDTGPDGTLLPKARDQAVFPQNGLVVSSVDVQSVEPVDQRTRDALQRSVQLAIEITTNSQEAAAKHEAQRLEQEARGRLERQKILDQSEAEKARKELLELEAMSMAVESTGNAKAEAESRAEAARIEGEGSVLQAKLKAQALAIETEAELERVKKVREMELIYARAQLELEVSKAQQLANVEAKKFKEMTEALGPGTIRDLAVAGPEMQVKLLQSLGLKSTLITDGSSPINLFSTAFGLLGLGSDGQPPAQK
  stoichiometry N: 78
